Data reported in patent US7132248 (dated 2006).

T1: rat GALR2 (rat)
T1 chain: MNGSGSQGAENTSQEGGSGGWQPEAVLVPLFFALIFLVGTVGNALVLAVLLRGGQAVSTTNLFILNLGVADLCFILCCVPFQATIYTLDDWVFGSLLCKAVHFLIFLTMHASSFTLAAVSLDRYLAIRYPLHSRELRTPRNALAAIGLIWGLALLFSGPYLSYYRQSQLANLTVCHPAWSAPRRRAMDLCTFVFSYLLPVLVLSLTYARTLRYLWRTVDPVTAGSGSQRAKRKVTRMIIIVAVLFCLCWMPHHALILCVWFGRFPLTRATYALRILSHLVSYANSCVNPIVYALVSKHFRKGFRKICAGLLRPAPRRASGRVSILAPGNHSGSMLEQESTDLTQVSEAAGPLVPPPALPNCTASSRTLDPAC

T2: rat GALR1 (rat, UniProt Q62805)
T2 chain: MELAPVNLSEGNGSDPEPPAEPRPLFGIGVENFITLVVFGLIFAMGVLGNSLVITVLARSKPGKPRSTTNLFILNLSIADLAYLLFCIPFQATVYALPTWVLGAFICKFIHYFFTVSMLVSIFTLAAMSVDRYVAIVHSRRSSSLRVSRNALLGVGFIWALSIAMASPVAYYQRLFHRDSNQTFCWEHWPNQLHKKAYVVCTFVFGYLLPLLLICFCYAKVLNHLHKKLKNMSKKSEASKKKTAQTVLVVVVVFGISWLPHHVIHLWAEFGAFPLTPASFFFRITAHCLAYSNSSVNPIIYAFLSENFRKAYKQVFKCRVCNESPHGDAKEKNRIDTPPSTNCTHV

T3: human GALR2 (human)
T3 chain: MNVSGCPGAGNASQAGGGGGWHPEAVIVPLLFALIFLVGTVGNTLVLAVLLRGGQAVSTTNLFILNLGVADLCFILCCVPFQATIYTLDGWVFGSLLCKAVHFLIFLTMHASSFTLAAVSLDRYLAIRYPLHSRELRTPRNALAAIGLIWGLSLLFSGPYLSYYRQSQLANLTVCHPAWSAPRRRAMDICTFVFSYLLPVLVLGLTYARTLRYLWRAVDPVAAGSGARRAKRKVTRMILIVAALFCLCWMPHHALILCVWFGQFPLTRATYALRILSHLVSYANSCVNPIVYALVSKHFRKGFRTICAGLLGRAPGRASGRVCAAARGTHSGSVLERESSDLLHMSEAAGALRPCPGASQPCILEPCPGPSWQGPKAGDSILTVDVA


Key:
rat GALR2 [1] = molecular target: T1, rat GALR2; assay: competition, radioligand COS-7
rat GALR2 [2] = molecular target: T1, rat GALR2; assay: competition, radioligand CHO
rat GALR1 = molecular target: T2, rat GALR1; assay: competition, radioligand COS-7
human GALR2 = molecular target: T3, human GALR2; assay: competition, radioligand COS-7
rat GALR2 [3] = molecular target: T1, rat GALR2; assay: competition, radioligand COS-7

Binder	Ki (rat GALR2 [2]) [nM]	Ki (human GALR2) [nM]	other results
RGCALLLASLLLASALSATLGLGSPVK [porcine galanin (3-29)]			Ki (rat GALR2 [1]): > 100000 nM
LASLLLASALSATLGLGSPVK [porcine galanin 9-29]	> 1000		
MPRGCALLL [porcine galanin 1-9]	> 1000		
MPRGCALLLASLLLAS [galanin (1-16)]		15	Ki (rat GALR2 [1]): 1.74 nM
human galanin (protein) KRGWTLNSAGYLLGPHAVGNHRSFSDKNGLTSKRELRPEDDMKPGSFDRSIPENNIMRTIIEFLSFLHLKEAGALDRLLDLPAAASSEDIERS	1.2		

More lines, main results first:

Ki (rat GALR2 [2]) [nM]	Ki (human GALR2) [nM]	Binder	other results
	0.72	MPRGCALLLASLLLASALSATLGLGSPVK [porcine galanin (1-29)]	Ki (rat GALR1): 0.457 nM
	1	MARGSVILLAWLLLVATLSATLGLGMPTK [rat galanin]	Ki (rat GALR2 [3]): 0.52 nM
> 1000		ALSATLGLGSPVK [porcine galanin 17-29]	
